Measurements reported in patent publication US12576154B2, “Conjugates of PSMA-binding moieties with cytotoxic agents” (PHILOCHEM AG, priority 2022, dated 2026).

System: LNCaP tumor (PSMA+)
Assay: MMAE release from conjugates in LNCaP tumor model (biodistribution by LC-MS)
Type: in vivo, mice
Method: LNCaP tumor cells were grown to 80% confluence and detached with Trypsin-EDTA 0.05%. Cells were resuspended in PBS at a density of 30×10^6 cells/mL. The cell suspension was further diluted 1:1 with Matrigel. 200 μL of LNCaP cells (3×10^6 cells) were injected subcutaneously in the left flank of female athymic Balb/c AnNRj-Foxn1 mice (6 to 8 weeks of age). Tumors were grown until volumes of 200-300 mm^3 were observed.
0.1 ml of 50 μM solutions (2% DMSO, PBS) of the four Conjugates (1-4) were injected intravenously into 4 of the mice (1 mouse per SMDC). The animals were sacrificed after 24 h and the following organs were extracted: blood, LNCaP tumor (PSMA+), heart, lungs, liver, kidney, spleen, stomach. The blood fraction was centrifuged, and the plasma (supernatant) was extracted. The organs were preserved at −80° C. before being used for further analysis.
Frozen plasma or mouse tissues (˜50 mg) were thawed and treated with 600 μL of an aqueous solution containing 95% acetonitrile (ACN), and 0.1% HCOOH were added to induce protein precipitation. 50 μL of a solution of d8-MMAE, 50 nM) was added as internal standard. Samples were then homogenized with a tissue lyser for 15 minutes at 30 Hz. After homogenization, samples were centrifuged (21'000 g for 10 minutes). The supernatant was collected and dried at room temperature with a rotary evaporator. Pellets were then resuspended in 1 mL of an aqueous solution containing 3% ACN and 0.1% of TFA and subsequently purified on Oasis HLB SPE columns. Eluates were dried under vacuum at room temperature. […] Peak areas of analytes and internal standards were integrated, and corresponding ratios were calculated. The ratios were then transformed into pmol/g of wet tissue using single-concentration external calibration points and corrected by the total weight of the sample analysed. The percentage of injected dose per gram (% ID/g) was finally calculated by normalizing the value based on the total dose injected into the mouse. […]

CC[C@H](C)[C@@H]([C@@H](CC(=O)N1CCC[C@H]1[C@H](OC)[C@@H](C)C(=O)N[C@H](C)[C@@H](O)c1ccccc1)OC)N(C)C(=O)[C@@H](NC(=O)[C@H](C(C)C)N(C)C(=O)OCc1ccc(NC(=O)[C@@H]2CCCN2C(=O)CNC(=O)CCCCCN2C(=O)CC(SC[C@H](N)C(=O)NCCCCCC(=O)NC[C@H]3CC[C@H](C(=O)N[C@@H](Cc4ccc5ccccc5c4)C(=O)NCCCC[C@H](NC(=O)N[C@@H](CCC(=O)O)C(=O)O)C(=O)O)CC3)C2=O)cc1)C(C)C (some centres unmarked) [Conjugate 1]
MMAE release, experiment repeated with three mice each (24 h after intravenous injection, LNCaP tumor model, n=3): confirmed | MMAE release (quantitative biodistribution) (24 hours after intravenous injection, 0.1 ml of 50 μM, 1 mouse per SMDC, LNCaP tumor and organs): Significant release of MMAE
